Laboratory results: patent publication US20190062411A1 (AstraZeneca / MedImmune, published 2019)

T1: MrkA on the surface of live or whole K. pneumoniae bacteria (Klebsiella pneumoniae, UniProt P12267 23-202)
T1 construct: Target of whole-bacteria ELISA, FACS and confocal assays; The strain is named under assay in each row; On bacteria MrkA is assembled into fimbriae (oligomeric); also called K. pneumoniae MrkA; type III fimbriae major subunit MrkA
T1 chain: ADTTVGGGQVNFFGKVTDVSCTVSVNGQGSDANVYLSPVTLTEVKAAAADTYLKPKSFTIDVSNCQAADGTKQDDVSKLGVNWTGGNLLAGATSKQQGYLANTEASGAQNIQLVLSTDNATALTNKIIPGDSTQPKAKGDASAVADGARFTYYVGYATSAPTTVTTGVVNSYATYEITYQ

T2: biotinylated recombinant his-tagged MrkA, mixture of monomeric and oligomeric MrkA (Klebsiella pneumoniae, UniProt P12267 23-202, biotin-labeled (Pierce kit; sites not stated))
T2 construct: also called biotinylated-MrkA; a mixture of monomeric and multimeric MrkA; not shown: his tag
T2 chain: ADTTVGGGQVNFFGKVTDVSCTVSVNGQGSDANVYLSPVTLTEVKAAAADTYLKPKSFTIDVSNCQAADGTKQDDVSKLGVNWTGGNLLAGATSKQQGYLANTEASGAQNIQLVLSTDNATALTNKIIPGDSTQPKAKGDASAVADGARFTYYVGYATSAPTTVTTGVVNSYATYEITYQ

T3: MrkA with both the N and C terminal deletions (MrkA-N/C-dlt) (Klebsiella pneumoniae, UniProt P12267 41-170)
T3 construct: Lysate of E. coli coated on the ELISA plate; not shown: His tag added at the C terminus
T3 chain: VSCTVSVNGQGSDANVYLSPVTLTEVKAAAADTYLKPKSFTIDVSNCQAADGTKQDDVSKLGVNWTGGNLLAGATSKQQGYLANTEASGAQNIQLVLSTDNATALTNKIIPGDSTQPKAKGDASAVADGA

T4: MrkA with a 40 amino acid N-terminal deletion (MrkA-N-dlt) (Klebsiella pneumoniae, UniProt P12267 41-202)
T4 construct: Lysate of E. coli coated on the ELISA plate; not shown: His tag added at the C terminus
T4 chain: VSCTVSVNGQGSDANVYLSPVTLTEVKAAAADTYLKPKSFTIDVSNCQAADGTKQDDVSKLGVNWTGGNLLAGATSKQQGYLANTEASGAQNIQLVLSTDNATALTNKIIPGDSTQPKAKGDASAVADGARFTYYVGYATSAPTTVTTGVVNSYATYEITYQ

T5: monomeric MrkA (purified, BLI) (Klebsiella pneumoniae, UniProt P12267 23-202)
T5 construct: not shown: N terminal 6x his tag from pET28
T5 chain: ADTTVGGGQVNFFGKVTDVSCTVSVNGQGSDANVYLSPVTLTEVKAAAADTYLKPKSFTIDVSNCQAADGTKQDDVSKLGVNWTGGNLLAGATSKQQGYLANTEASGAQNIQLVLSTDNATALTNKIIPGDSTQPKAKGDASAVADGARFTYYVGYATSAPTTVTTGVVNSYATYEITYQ

B1: Kp3 (antibody, IgG1, V domains shown)
VH: QVQLQESGPGLVKPSETLSLTCTVSGGSMNSNSNTYYWGWIRQPPGKGLEWIGTIHSSGRTYYNPSLKSRVTISVDMSKNQFSLNLTSATAADTAVYYCARDLSGASLAPRRPFNYYYYNMDVWGRGTLVTVSS
VL: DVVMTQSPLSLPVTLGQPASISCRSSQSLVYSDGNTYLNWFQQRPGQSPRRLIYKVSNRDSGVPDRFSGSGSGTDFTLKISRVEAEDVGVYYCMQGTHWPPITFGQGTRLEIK
notes: constant regions are not; also called anti-MrkA mAb Kp3; MAb Kp3
B2: Kp16 (antibody, V domains shown)
VH: QVQLQQSGAEVKKPGASVKVSCKASGYALTTYYMHWVRQAPGQGLQWMGMINPSSGSTIYAQPFRGRVTLTRDTSSGTVFMDLSSLTSEDTAIYYCARGNYGSSFGYWGKGTMVTVSS
VL: not shown
B3: anti-MrkA clone 5 (IgG1) (antibody, V domains shown)
VH: QVQLVQSGAEVKKPGASLKVSCKASGYTFTAYYMHWVRQAPGHGLEWMGWINPSSGGTNSAQKFQGRVTMTRDTSINTAYMELSRLTSDDTAVYYCARGTIGAAGNYWGQGTLVTVSS
VL: QSVLTQPPSASGTPGQRVTISCSGSRPNIGGNTVNWYQQLPGAAPKLLIYSNSQRPSGVPDRFSGSKYGTSASLAISGLQSDDEADYYCAAWDDSLTGPVFGGGTKLTIL
notes: also called St3_C5; IgG clone 5
B4: Clone 5 Fab (Fab, V domains shown)
VH: QVQLVQSGAEVKKPGASLKVSCKASGYTFTAYYMHWVRQAPGHGLEWMGWINPSSGGTNSAQKFQGRVTMTRDTSINTAYMELSRLTSDDTAVYYCARGTIGAAGNYWGQGTLVTVSS
VL: QSVLTQPPSASGTPGQRVTISCSGSRPNIGGNTVNWYQQLPGAAPKLLIYSNSQRPSGVPDRFSGSKYGTSASLAISGLQSDDEADYYCAAWDDSLTGPVFGGGTKLTIL
notes: also called Clone 5 (Fab format)
B5: anti-MrkA clone 4 (IgG1) (antibody, V domains shown)
VH: QLQLQESGPGLVKPSGTLSLTCAVSGDSIDNANWWSWVRQTPGKGLEWIGEIYHSGTTYYNPSLKSRVTISIDNSKNQFSLALTSVTAADTAVYYCARDRDITSRGTFDVWGRGTMVTVSS
VL: DIQMTQSPSTLSASIGDRVTITCRASEGIYHWLAWYQQKPGKAPKLLIYKASSLASGAPSRFSGSGSGTDFTLTISSLQPDDFATYYCQQYSNYPLTFGGGTKLEIK
notes: also called St2_C4; IgG clone 4
B6: anti-MrkA clone 6 (IgG1) (antibody, V domains shown)
VH: QVQLVQSGAEVRKPGASVTLSCRTSGYTFTSYAVHWVRQAPGQGLEWMGGVNGGNGNTRFSQKFQDRLMIVRDRSANTASMELRSLTSEDTAVYYCARADDCSGVGCHPWFDPWGQGTLVTVSS
VL: SVILTQPPSVSVSPGQTANITCSGDKLGDKYTSWYLQKPGQSPVLLIFQDTKRPSDIPERFSGSNSGNTATLTISGTQAVDEADYYCQAWDSDSGTATFGGGTKLTVL
notes: also called St4_C6; IgG clone 6
B7: Clone 1 Fab (Fab, V domains shown)
VH: QVQLVQSGAEVRKPGASVTVFCRTSGYIFTSYAVHWVRQAPGQGLEWMGGINGGNGNTRISQRFQDRLMITRDRSANTASMELRSLTSEDTAIYYCARADDCSGVGCHPWFDPWGRGTLVTVSS
VL: QSVLTQPPSVSVSPGHTASITCSGDKLGDKYVSWYQQKSGQSPVLVMYKDTKRPSGIPERFSGSNSGNTATLAISGTQAVDEADYFCQAWDRSIMIFGGGTKVTVL
notes: also called Clone 1 (Fab format)
B8: anti-MrkA clone 1 (IgG1) (antibody, V domains shown)
VH: QVQLVQSGAEVRKPGASVTVFCRTSGYIFTSYAVHWVRQAPGQGLEWMGGINGGNGNTRISQRFQDRLMITRDRSANTASMELRSLTSEDTAIYYCARADDCSGVGCHPWFDPWGRGTLVTVSS
VL: QSVLTQPPSVSVSPGHTASITCSGDKLGDKYVSWYQQKSGQSPVLVMYKDTKRPSGIPERFSGSNSGNTATLAISGTQAVDEADYFCQAWDRSIMIFGGGTKVTVL
notes: also called St1_C1; IgG clone 1

Columns and labels:
[1] = target: T1, MrkA on the surface of live or whole K. …; test: whole cell ELISA on K. pneumoniae strain 29011 (title: Kp29011 ELISA)
Experimental: Briefly, a single colony of K. pneumoniae was inoculated into 2xYT media until the culture reached log phase. Bacteria were coated onto 384-well plates (Nunc MaxiSorp) overnight at 4° C. […] After blocking with PBS supplemented with 4% BSA (PBS-B), the coated plates were incubated with anti-K. pneumoniae antibodies for 1 h. The plates were then washed with PBS-T (PBS+0.1% Tween 20) before HRP-conjugated secondary antibody was added for 1 h followed by washing and TMB (3, 3′, 5, 5′-Tetrametheylbenzidine) substrate addition. Color development was stopped by adding 0.1 N HCL, and the absorbance at 450 nm was measured by microplate reader (Molecular Devices). The data was plotted with Prism software.

[2] = target: T2, biotinylated recombinant his-tagged …; test: ELISA, MrkA protein coated directly onto the plate, not biotinylated (title: anti-MrkA IgG binding to MrkA)
[3] = target: T2, biotinylated recombinant his-tagged …; test: BLI (Octet), biotinylated MrkA on streptavidin sensors, IgG in solution, 1:1 fit
Experimental: (§1) For affinity measurement, two different formats were used. The first used an IgG against a mixture of monomeric and oligomeric MrkA. The second used a Fab against a monomeric MrkA. A ForteBio Octet QK384 instrument was used to study kinetics of the anti-MrkA mAbs. All the assays were done at 200 μl/well in ForteBio 10× kinetic buffer at 30° C. […] Dissociation of the interaction was probed for 600 seconds. Any systematic baseline drift was corrected by subtracting the shift recorded for a sensor loaded with ligand but incubated without analyte. Octet Data Analysis software version 8.0 was used for curve fitting with the binding equations available for a 1:1 interaction model. Global analyses were done using nonlinear least squares fitting. Goodness of fit for the data were assessed by the generated residual plots, R2 and χ2 values.

[4] = target: T2, biotinylated recombinant his-tagged …; test: ELISA, biotinylated MrkA captured by streptavidin (title: anti-MrkA IgG binding to bio-MrkA)
[5] = target: T3, MrkA with both the N and C terminal …; test: ELISA on plates coated directly with cleared lysate of E. coli expressing the His-tagged construct; y axis without a label
[6] = target: T4, MrkA with a 40 amino acid N-terminal …; test: as above
[7] = target: T5, monomeric MrkA (purified, BLI); test: BLI (Octet), Fab against monomeric MrkA
Experimental: as §1

Row | Binder | EC50 (read off the curve) [1] [µg/mL] | EC50 (read off the curve) [2] [µg/mL] | Kd [3] [nM] | koff [3] [s⁻¹] | kon [3] [M⁻¹ s⁻¹] | EC50 (read off the curve) [4] [µg/mL] | binding result [5] | binding result [6] | Kd [7] [nM] | koff [7] [s⁻¹] | kon [7] [M⁻¹ s⁻¹]
1 | B1 | ~0.08 | ~0.01 | 0.15 | 1.2e-05 | 76000 | ~0.01 | no binding | no binding |  |  | 
2 | B2 | ~0.08 |  |  |  |  |  |  |  |  |  | 
3 | B3 |  | ~0.01 | 3.54 | 9.2e-05 | 26000 | ~0.2 |  |  |  |  | 
4 | B4 |  |  |  |  |  |  |  |  | 1520 | 0.0782 | 50000
5 | B5 |  | ~0.01 | 3.61 | 0.000146 | 40600 | ~0.1 |  |  |  |  | 
6 | B6 |  | ~0.01 | 8.8 | 0.0002 | 22000 | ~0.01 |  |  |  |  | 
7 | B7 |  |  |  |  |  |  |  |  | 2.76 | 0.00034 | 150000
8 | B8 |  | ~0.01 | 3.25 | 0.00017 | 53000 | ~0.01 |  |  |  |  | 
